Results from paper PMC10609148 (Molecules, 2023).

Columns and labels:
Settings in all cases: both partners purified
[1] = molecular target: T1, Human Aβ(1–42)-HiLyte^TM-Fluor555 (human, UniProt P05067 672-713, HiLyte^TM-Fluor555 dye covalently bound to ASP1 (NH2-terminus amino acid)); test: other fluorescence titration; His6 added to 10 nM Aβ(1–42) HiLyte-Fluor555 in solution; increase in dye fluorescence (ex 520 nm, em 567 nm) at the end of the kinetics (2000 s); 50 mM HEPES, 100 mM KCl, 50 µM CaCl2, pH 7.05, 24–25 °C
T1 construct: Amyloid β peptide Aβ(1–42), human, cut product of the amyloid precursor protein; numbers count on: the Aβ peptide; source: bought: AnaSpec

[2] = molecular target: T1, Human Aβ(1–42)-HiLyte^TM-Fluor555; test: other fluorescence titration; competition: 10 nM Aβ(1–42) HiLyte-Fluor555 preincubated 15 min with rising His6, then 5 nM CaM added; attenuation of the maximum fluorescence increase; 50 mM HEPES, 100 mM KCl, 50 µM CaCl2, pH 7.05, 24–25 °C
[3] = molecular target: T1, Human Aβ(1–42)-HiLyte^TM-Fluor555; test: other fluorescence titration; competition: 10 nM Aβ(1–42) HiLyte-Fluor555 preincubated 15 min with rising His6, then 5 nM calbindin-D28k added; attenuation of the maximum fluorescence increase; 50 mM HEPES, 100 mM KCl, 50 µM CaCl2, pH 7.05, 24–25 °C

B1: hexa-histidine peptide (His6) (peptide)
peptide: HHHHHH
notes: hexa-histidine; source: bought: Quimigen
- EC50 [1]: 50 to 60 nM
- IC50 [2]: ~1000 nM
- IC50 [3]: ~100 nM
